The text below walks through data of paper PMC10766783 (Life Science Alliance, 2024).

Like-named read-outs stand apart in the source and are kept apart here.

One experiment concerns the target cemiplimab. The experiment in a line: BLI; Octet RED96; antibodies captured on anti-human Fc AHC2 tips, PD-1 proteins as analyte at different concentrations; Octet kinetics buffer; 1:1 binding model.
A further experiment has as its target nivolumab. The description is as above.
The next experiment concerns the target camrelizumab. The experiment is described as above.
A further experiment addresses pembrolizumab. The experiment is described as above.
For experiment [1], the target named is T1, PD-1 on Jurkat-Lucia TCR-hPD-1 cells (Homo sapiens, UniProt Q15116).
T1 sequence (Q15116 25-288): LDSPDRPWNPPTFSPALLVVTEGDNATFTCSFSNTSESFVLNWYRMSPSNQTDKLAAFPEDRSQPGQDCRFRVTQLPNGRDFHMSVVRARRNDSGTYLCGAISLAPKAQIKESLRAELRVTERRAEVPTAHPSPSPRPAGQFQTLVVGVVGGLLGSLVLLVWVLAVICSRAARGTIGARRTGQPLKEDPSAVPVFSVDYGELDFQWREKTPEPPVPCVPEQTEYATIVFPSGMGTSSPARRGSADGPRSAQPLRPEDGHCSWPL
Experiment [2] deals with T2, chimeric receptor with the extracellular and transmembrane domains of PD-1 and intracellular GFP, on CHO-K1 … (Homo sapiens, UniProt Q15116, N-glycans without core fucose (Fut8 KO host)).
T2 construct: PD-1, human, extracellular and transmembrane domains; differs in the host and so in the glycans; also called cell surface PD-1 (CHO-K1 Fut8 KO); source: CHO-K1 Fut8 KO, transfected, on cells
T2 sequence (Q15116 whole entry, looked up, stated change not applied, the tested form may be a part): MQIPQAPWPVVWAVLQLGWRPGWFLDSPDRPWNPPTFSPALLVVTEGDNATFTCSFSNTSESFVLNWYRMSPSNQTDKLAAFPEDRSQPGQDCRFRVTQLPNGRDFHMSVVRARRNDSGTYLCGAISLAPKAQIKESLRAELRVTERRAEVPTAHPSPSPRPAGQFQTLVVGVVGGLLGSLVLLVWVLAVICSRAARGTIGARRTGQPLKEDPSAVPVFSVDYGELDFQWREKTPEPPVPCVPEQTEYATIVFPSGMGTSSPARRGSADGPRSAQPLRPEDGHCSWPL
The experiment in a line: flow cytometry on cells; antibodies added to CHO-K1 or CHO-K1 Fut8 KO cells transfected with PD-1 (extracellular and transmembrane domains)-GFP, 30 min on ice; binding as percentage of PD-1 expression in GFP-positive cells; four-parameter logistic fit. The settings on record: one partner purified. (In general: In flow cytometry, cells or beads pass a laser one at a time.)

Experiment [3] has as its target T3, full-length PD-1 on CHO-K1 Fut8 KO cells (human, UniProt Q15116, N-glycans without core fucose (Fut8 KO host)).
T3 construct: PD-1, human, full length, on transfected cells; also called PD-1 expressed in CHO-K1 Fut8 KO; Fut8-deficient cells; source: CHO-K1 Fut8 KO, transfected, on cells
Description: flow cytometry on cells; ligand blocking: PD-1-transfected CHO-K1 or CHO-K1 Fut8 KO cells incubated with antibodies 15 min on ice before PD-L1:SA-PE complexes; four-parameter logistic fit. The settings on record: one partner purified.

Experiment [4] has as its target non-fucosylated recombinant PD-1 (PD-1 NF) (human) (UniProt Q15116). Description: ELISA; plate-based ligand blocking: plates coated with 5 ug/ml PD-1, PD-1 NF or PD-1 N58Q; antibodies 1 h at room temperature, washed, then 1 ug/ml PD-L1-Fc-biotin 2 h; streptavidin-HRP. In general terms: ELISA stands for enzyme-linked immunosorbent assay.
The target of experiment [5] is T4, recombinant PD-1 N58Q mutant (human, UniProt Q15116, N58Q).
T4 construct: PD-1, human, UniProt Q15116, residues 24-167 of the extracellular portion, N58Q; source: Expi293, transiently transfected, purified (Ni Sepharose Excel)
T4 sequence (Q15116 24-167 N58Q): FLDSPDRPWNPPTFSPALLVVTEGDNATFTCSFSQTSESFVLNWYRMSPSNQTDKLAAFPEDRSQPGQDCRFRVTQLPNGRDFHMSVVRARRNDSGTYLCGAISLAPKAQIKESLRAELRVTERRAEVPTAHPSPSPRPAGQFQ
The description is as above. The settings on record: both partners purified.

The target of experiment [6] is T4, recombinant PD-1 N58Q mutant. The experiment in a line: BLI; Octet RED96; antibodies captured on anti-human Fc AHC2 tips, PD-1 proteins as analyte at different concentrations; Octet kinetics buffer; 1:1 binding model. The settings on record: both partners purified.
Experiment [7] deals with T1, PD-1 on Jurkat-Lucia TCR-hPD-1 cells. Description: cell-based or functional assay.

Chain of non-fucosylated recombinant PD-1 (PD-1 NF) (human) (Q15116 24-167): as the sequence (Q15116 24-167 N58Q) above, with Q35N counted along it
T3 sequence (Q15116 25-288): as the sequence (Q15116 25-288) above
Chain of nivolumab (heavy, as listed by the source, chain 1 of 2): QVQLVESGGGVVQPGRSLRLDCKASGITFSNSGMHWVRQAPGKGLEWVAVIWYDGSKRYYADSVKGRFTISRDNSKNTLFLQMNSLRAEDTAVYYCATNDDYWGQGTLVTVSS
Chain of nivolumab (light, as listed by the source, chain 2 of 2): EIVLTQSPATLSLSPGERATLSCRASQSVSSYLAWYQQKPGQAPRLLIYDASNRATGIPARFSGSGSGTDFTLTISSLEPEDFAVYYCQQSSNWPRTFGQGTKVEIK
Chain of pembrolizumab (heavy, as listed by the source, chain 1 of 2): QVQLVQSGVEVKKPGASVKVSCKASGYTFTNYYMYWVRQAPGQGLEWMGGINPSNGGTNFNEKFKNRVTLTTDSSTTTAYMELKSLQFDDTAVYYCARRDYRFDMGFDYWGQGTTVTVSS
Chain of pembrolizumab (light, as listed by the source, chain 2 of 2): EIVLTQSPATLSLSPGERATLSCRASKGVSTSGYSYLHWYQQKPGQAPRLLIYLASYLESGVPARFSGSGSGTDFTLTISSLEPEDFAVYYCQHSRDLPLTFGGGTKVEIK

By Kd is commonly meant the free concentration of one partner at which half of the binding sites on the other are occupied at equilibrium, for simple one-to-one binding. For “non-fucosylated recombinant PD-1 (PD-1 NF) (from UniProt Q15116 24-167) (domain or fragment)”, the Kd with cemiplimab turned out to be 87.1 nM; with nivolumab it was 20.8 nM; with camrelizumab it was 380 nM; with pembrolizumab, 3.67 nM.
For the molecule “recombinant PD-1 (extracellular portion of human PD-1, residues 24-167) (from UniProt Q15116 24-167) (domain or fragment)”, the Kd with cemiplimab was 2.95 nM; with camrelizumab it was 3.41 nM.

B1: cemiplimab (antibody, V domains shown)
VH: EVQLLESGGVLVQPGGSLRLSCAASGFTFSNFGMTWVRQAPGKGLEWVSGISGGGRDTYFADSVKGRFTISRDNSKNTLYLQMNSLKGEDTAVYYCVKWGNIYFDYWGQGTLVTVSS
VL: DIQMTQSPSSLSASVGDSITITCRASLSINTFLNWYQQKPGKAPNLLIYAASSLHGGVPSRFSGSGSGTDFTLTIRTLQPEDFATYYCQQSSNTPFTFGPGTVVDFR
notes: Whole therapeutic anti-human PD-1 antibody; The PDB entry may hold only the variable part; source: bought: Selleck Chemicals
By IC50 is commonly meant the concentration needed to halve the response being measured. On to B1, for which the PD-1/PD-L1 reporter assay (Jurkat-Lucia TCR-hPD-1 with Raji-APC-hPD-L1, luciferase): blockade of PD-1:PD-L1, fold change of IC50, Jurkat cells pretreated with the fucose inhibitor against untreated in experiment [1] was 2.4 fold. The “fold change in EC50 (CHO-K1 Fut8 KO against wild-type CHO-K1)” value in [2] worked out at 1.3 fold. Besides, the concentration for half-maximal inhibition (IC50) in experiment [3] was 2.6 nM; in experiment [4], 0.6 nM; in experiment [5] it was 1.4 nM. Further, in experiment [6], the dissociation constant (Kd) was 260 nM.

B2: camrelizumab (antibody, V domains shown)
VH: EVQLVESGGGLVQPGGSLRLSCAASGFTFSSYMMSWVRQAPGKGLEWVATISGGGANTYYPDSVKGRFTISRDNAKNSLYLQMNSLRAEDTAVYYCARQLYYFDYWGQGTTVTVSS
VL: DIQMTQSPSSLSASVGDRVTITCLASQTIGTWLTWYQQKPGKAPKLLIYTATSLADGVPSRFSGSGSGTDFTLTISSLQPEDFATYYCQQVYSIPWTFGGGTKVEIK
notes: Whole therapeutic anti-human PD-1 antibody; a human IgG4 isotype was the control and anti-human IgG4 or anti-human IgG the detection reagent; The PDB entry may hold only the variable part; source: bought: Selleck Chemicals
As for B2, the “fold change in EC50 (CHO-K1 Fut8 KO against wild-type CHO-K1)” value in experiment [2] turned out to be 3 fold. Further, in experiment [7], the “PD-1/PD-L1 reporter assay (Jurkat-Lucia TCR-hPD-1 with Raji-APC-hPD-L1, luciferase): blockade of PD-1:PD-L1, fold change of IC50, Jurkat cells pretreated with the fucose inhibitor against untreated” value is 2.8 fold. For the same molecule, the 50% inhibitory concentration (IC50) is 5.6 nM in experiment [3], 1.5 nM in [4] and 18 nM in experiment [5]. Besides, the Kd in experiment [6] was 449 nM.
